Read-outs that look alike come from different tables or passages of the source.

Assay in all cases: EMSA
(A gel shift assay detects complexes by their altered migration in electrophoresis.)

The target of series [1] is T1, TDP43(WT) (UniProt Q13148 1-414).
The target in series [2] is T1, TDP43(WT). This is another data set of the same source.
For series [3], the target named is T1, TDP43(WT). The source holds these as a separate data set.

T1 sequence (Q13148 whole entry): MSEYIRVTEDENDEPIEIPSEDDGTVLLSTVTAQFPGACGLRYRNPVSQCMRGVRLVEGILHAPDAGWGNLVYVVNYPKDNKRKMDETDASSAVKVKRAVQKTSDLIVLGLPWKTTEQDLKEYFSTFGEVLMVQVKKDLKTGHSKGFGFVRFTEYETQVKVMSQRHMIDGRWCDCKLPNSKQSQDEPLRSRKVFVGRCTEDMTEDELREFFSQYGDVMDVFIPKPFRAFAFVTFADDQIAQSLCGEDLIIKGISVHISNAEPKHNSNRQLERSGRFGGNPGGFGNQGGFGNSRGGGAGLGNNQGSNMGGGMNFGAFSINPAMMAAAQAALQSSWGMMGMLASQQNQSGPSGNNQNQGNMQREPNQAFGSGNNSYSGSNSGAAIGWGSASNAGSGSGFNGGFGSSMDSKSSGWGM

For ATATATATATATATATATATATAT (ssDNA) [(AT)12], the binding result with TDP43(WT) [1] is on record as “no binding”.
Same read-out and setting: the value for GCGCGCGCGCGCGCGCGCGCGCGC (ssDNA) [(GC)12] was “no binding”.
As to UGUGUGUGUGUGUGUGUGUGUGUG (ssRNA) [(UG)12], in the series with TDP43(WT) [2], the Kd – broadly, the free concentration of one partner at which half of the binding sites on the other are occupied at equilibrium, for simple one-to-one binding – amounted to 0.35 ± 0.1 nM.
TGTGTGTGTGTGTGTGTGTGTGTG (ssDNA) [(TG)12] yielded an equilibrium dissociation constant (Kd) with TDP43(WT) [3] of 7.4 ± 0.34 nM.
